Among the data in the supplement of paper PMC9732359 are protein stability index values, retold here.

± gives the uncertainty stated by the source.

This data set can be described thus: protein stability index of a GFP-peptide fusion (yeast GPS) (PSI 1-4); higher = more stable; sorted into four equal gates, so the index is relative within each strain. The method, boiled down:
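The protein stability index of a peptide was calculated by multiplying its read frequency in each gate by that gate's number and adding the products. The peptides were tiled 17-residue stretches of yeast proteins, fused downstream of GFP on a Cherry-expressing plasmid and carried in yeast as a pooled library. Mid-log cultures in leucine-free medium were sorted into four equal gates by GFP/Cherry ratio, and each gate's plasmids were PCR-amplified and Illumina-sequenced.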

SRENNSEYMVFGKLAFP [YJL039C/NUP192]: the protein stability index reads like this: (doa10∆) 2.49 ± 0.064; (pdr5∆) 2.54 ± 0.072; (san1∆) 2.97 ± 0.069; (ubr1∆) 2.79 ± 0.082.
Regarding LCDLFVNGSITDQLIQN [NUT1], the protein stability index came out at 2.11 ± 0.22 (pdr5∆), 1.76 ± 0.21 (san1∆) and 3.44 ± 0.29 (ubr1∆).
For SQLAKWKTAEEVSALVR [PRP8], the protein stability index (doa10∆) was determined as 1.26 ± 0.17.
For IERIGHLLSINYGEKEE [PCI8], the protein stability index (doa10∆) came to 1.32 ± 0.06, the protein stability index (pdr5∆) amounted to 1.33 ± 0.055, the protein stability index (san1∆) was 1.2 ± 0.092 and the protein stability index (ubr1∆) came out at 1.18 ± 0.049.
For QIIRLFYSKNRLLITGT [ISW2], the protein stability index is 2.55 ± 0.23 (doa10∆) and 1.56 ± 0.14 (pdr5∆).
Turning to NSINNNNIKNGTNNISQ [YDL088C/ASM4], the protein stability index runs as follows: (doa10∆) 2.79 ± 0.044; (pdr5∆) 2.75 ± 0.046; (san1∆) 2.74 ± 0.046; (ubr1∆) 2.98 ± 0.035.
For the sequence RQLQYETLGDILKRDFE [ECM29], the protein stability index amounted to 2.92 ± 0.075 (doa10∆), 3.36 ± 0.099 (pdr5∆), 2.76 ± 0.095 (san1∆) and 3.02 ± 0.087 (ubr1∆).
On to HILPEVPPVENFPVRQW [TAF14], for which the protein stability index (doa10∆) was determined as 2.71 ± 0.12, the protein stability index (pdr5∆) is 3.05 ± 0.088, the protein stability index (san1∆) is 2.95 ± 0.073 and the protein stability index (ubr1∆) turned out to be 3.05 ± 0.055.
For MSGSFWTSTQRHHWQYT [SSN8], the protein stability index by setting is: (doa10∆) 2.07 ± 0.14; (pdr5∆) 2.27 ± 0.15; (san1∆) 1.97 ± 0.13; (ubr1∆) 2.23 ± 0.099.
In the same order, the values of KERLVRDKKEKKQAQKQ [SMB1] are 3.25 ± 0.097, 3.21 ± 0.086, 2.82 ± 0.14 and 3.3 ± 0.086.
In the same order, the values of GIHDGHIKKLLHQYYGD [FAS1] are 1.44 ± 0.045, 1.8 ± 0.051, 1.85 ± 0.098 and 1.31 ± 0.03.
In the same order, the values of ELLRLANEQLKLFNRIV [CSN12] are 2.3 ± 0.069, 2.55 ± 0.082, 1.64 ± 0.085 and 1.92 ± 0.07.
The sequence MSSVQSKILSQAPSELE [RPS7B] showed a protein stability index (doa10∆) of 2.58 ± 0.08, a protein stability index (pdr5∆) of 2.72 ± 0.083, a protein stability index (san1∆) of 2.61 ± 0.098 and a protein stability index (ubr1∆) of 2.04 ± 0.1.
In the same order, the values of AKSTPNTNPSPLKTQTK [GAL11] are 2.82 ± 0.051, 2.94 ± 0.046, 2.64 ± 0.05 and 2.91 ± 0.038.
In the same order, the values of ILLQHKEKLTVQDCRYS [POP1] are 2.53 ± 0.054, 2.45 ± 0.049, 2.31 ± 0.05 and 2.42 ± 0.03.
In the same order, the values of LHKLQRMRLRALETENM [GRR1] are 1.46 ± 0.046, 1.92 ± 0.059, 1.47 ± 0.077 and 1.38 ± 0.032.
EKGKKVSGFKDEVLETV [RPS1B] had a protein stability index (doa10∆) of 3.39 ± 0.11, a protein stability index (pdr5∆) of 2.82 ± 0.11, a protein stability index (san1∆) of 3.48 ± 0.11 and a protein stability index (ubr1∆) of 3.44 ± 0.084.
In the same order, the values of TKSKNKTLIGLQGIVIW [POP4] are 2.93 ± 0.05, 2.76 ± 0.051, 2.76 ± 0.044 and 2.73 ± 0.034.
With VNGSPITLVEPEILRFK [RPS16A], the protein stability index (pdr5∆) was determined as 2.79 ± 0.15 and the protein stability index (ubr1∆) is 3.36 ± 0.17.
As for RLMMNSKVGSADTGRDD [RPN11], the protein stability index by setting is: (doa10∆) 3.39 ± 0.085; (pdr5∆) 3.36 ± 0.068; (san1∆) 3.51 ± 0.058; (ubr1∆) 3.52 ± 0.07.
In the same order, the values of NIGTPSFNMAQIPQQLY [SNF5] are 1.93 ± 0.068, 2.08 ± 0.072, 2.17 ± 0.056 and 2.04 ± 0.047.
Consider QMAVHIATDGGRICRPL [RET1], for which the protein stability index is, setting by setting: (doa10∆) 2.66 ± 0.094; (pdr5∆) 3.04 ± 0.085; (san1∆) 2.78 ± 0.1; (ubr1∆) 2.8 ± 0.054.
In the same order, the values of SNIEQTESLRVENSVLI [YIL149C/MLP2] are 3.25 ± 0.091, 3.09 ± 0.14, 3.08 ± 0.049 and 3.07 ± 0.064.
In turn, IGWCKEDPKRRADTMDF [YJL039C/NUP192] registered a protein stability index (doa10∆) of 3.16 ± 0.21, a protein stability index (pdr5∆) of 3.56 ± 0.11, a protein stability index (san1∆) of 3.47 ± 0.13 and a protein stability index (ubr1∆) of 3.39 ± 0.12.
In the same order, the values of GGESDSALILMYKGFGL [UBP6] are 3.37 ± 0.07, 3.41 ± 0.076, 3.15 ± 0.085 and 3.29 ± 0.055.
In the same order, the values of IITKNENFLKEVFQLRI [GAL11] are 1.56 ± 0.091, 1.54 ± 0.067, 1.54 ± 0.11 and 1.26 ± 0.062.
In the same order, the values of DALQDVEESSEKKQKTE [DPB4] are 3.2 ± 0.082, 3.42 ± 0.076, 3.21 ± 0.048 and 3.18 ± 0.052.
As for LMTKLNSFKLFKAEKLQ [RPC17], the protein stability index runs as follows: (doa10∆) 1.97 ± 0.059; (pdr5∆) 1.88 ± 0.054; (san1∆) 1.92 ± 0.06; (ubr1∆) 1.75 ± 0.04.
